We go through one molecule from patent publication US20230213525A1, “DETECTING MICROBIAL INFECTION IN WOUNDS” (QUALIZYME DIAGNOSTICS GMBH & CO KG, priority 2016, published 2023).

The target of the experiment is T1, Elastase (Homo sapiens, UniProt P08246).
T1 sequence (P08246 30-267): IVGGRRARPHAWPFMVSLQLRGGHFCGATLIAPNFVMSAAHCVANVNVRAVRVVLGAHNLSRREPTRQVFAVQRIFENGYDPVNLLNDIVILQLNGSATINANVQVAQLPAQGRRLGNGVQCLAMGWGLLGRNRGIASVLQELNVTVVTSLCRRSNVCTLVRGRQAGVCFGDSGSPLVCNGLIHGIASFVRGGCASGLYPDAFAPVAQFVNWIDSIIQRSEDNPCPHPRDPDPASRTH
Put plainly: Reaction of Trx-Ela-Sub 1-RBB with Elastase. Particulars: incubated with and without Elastase containing buffer; FIG. 10. The format is biochemical. The procedure: The stained and purified peptide construct was applied on a cellulose surface and dried at 37° C. for 2 h. Unbound Trx-Ela-Sub 1-RBB was removed with H20. The stripes with the applied Elastase substrate were incubated with and without Elastase containing buffer, respectively.

B1: Trx-Ela-Sub 1-RBB: purified Trx-Ela-Sub1 fusion protein stained with vinyl sulfone dye remazol brilliant blue R (conjugate)
chain: MSDKIIHLTDDSFDTDVLKADGAILVDFWAEWCGPCKMIAPILDEIADEYQGKLTVAKLNIDQNPGTAPKYGIRGIPTLLLFKNGEVAATKVGALSKGQLKEFLDALAGSGSGHMHHHHHHSSGLVPRGSGMKETAAAKFERQHMDSPDLGTDDDDKAMGGSCGGGGSAAPVGGGGSAAPVGGGGSPPGGNRGTTTTRRPATTTGSSPGPTQSHYGQCGGIGYSGPTVCASGTTCQVLNPYYSQCLLEHHHHHH
Take B1: the “dye release from cellulose stripes” value is “Elastase responsive dye release”.
